The values below come from article PMC4422613, “The Inner Nuclear Membrane Protein Nemp1 Is a New Type of RanGTP-Binding Protein in Eukaryotes” (PLoS ONE, 2015).

The target of assay [1] is recombinant Myc-Mm_RanQ69L(GTP) (Mus musculus, UniProt P62827 1-216, Q69L). Put plainly: pull-down; purified GST-Mm_Bt (2.8 μg) on glutathione-Sepharose beads incubated with purified Myc-RanQ69L (5 μg) loaded with 2 mM GTP, binding buffer, 4 °C, 2 h. As to conditions: both partners purified.
The next assay addresses GST-Mm_RanQ69L (Mus musculus, UniProt P62827 1-216, Q69L). The assay can be described thus: pull-down; competition: 0.1, 1, 10 μg recombinant Mm_Bt added to 10 μg GST-RanQ69L on glutathione beads in embryo lysate holding FLAG-importin β; read-out is the importin β pulled down. To be noted: both partners purified.

B1: GST-Mm_Bt (domain or fragment)
chain: PVPPRLLTEEEYRIQGEVETQKALQELREFCNSPECSAWKTISRIQSPKRFADFVEGSFHLTPNEVSVHEQEYGLGSIFTQDEELSSEEEGSEYPTFTQNNFLT
On to B1, for which the binding result in assay [1] is listed as “binds”.

B2: recombinant Mm_Bt (domain or fragment)
chain: B1 chain
notes: source: recombinant
For the molecule B2, the binding result with GST-Mm_RanQ69L is “binds”.
